The text below walks through data of publication PMC2680271.

Data set [1] deals with KorA WT (IncP-1 plasmid (expressed in E. coli)). Put plainly: EMSA. A general note: Mobility shift assays separate free from complexed probe on a gel.
Data set [2] deals with KorA Y84A (IncP-1 plasmid (expressed in E. coli)). The data set can be described thus: EMSA.

Turning to “korAp fragment (220 bp, EcoRI-cut pSTM12)”, the K half is 300 nM in data set [1] and 200 nM in data set [2].
